Results as given in US20240382513A1.

Target: transferrin receptor (on Hepa 1-6 cells; in tissues of C57BL/6 wild-type mice) (mouse) (UniProt Q62351)
Test: cell-based or functional assay

UniProt Q62351, sequence (Q62351 whole entry): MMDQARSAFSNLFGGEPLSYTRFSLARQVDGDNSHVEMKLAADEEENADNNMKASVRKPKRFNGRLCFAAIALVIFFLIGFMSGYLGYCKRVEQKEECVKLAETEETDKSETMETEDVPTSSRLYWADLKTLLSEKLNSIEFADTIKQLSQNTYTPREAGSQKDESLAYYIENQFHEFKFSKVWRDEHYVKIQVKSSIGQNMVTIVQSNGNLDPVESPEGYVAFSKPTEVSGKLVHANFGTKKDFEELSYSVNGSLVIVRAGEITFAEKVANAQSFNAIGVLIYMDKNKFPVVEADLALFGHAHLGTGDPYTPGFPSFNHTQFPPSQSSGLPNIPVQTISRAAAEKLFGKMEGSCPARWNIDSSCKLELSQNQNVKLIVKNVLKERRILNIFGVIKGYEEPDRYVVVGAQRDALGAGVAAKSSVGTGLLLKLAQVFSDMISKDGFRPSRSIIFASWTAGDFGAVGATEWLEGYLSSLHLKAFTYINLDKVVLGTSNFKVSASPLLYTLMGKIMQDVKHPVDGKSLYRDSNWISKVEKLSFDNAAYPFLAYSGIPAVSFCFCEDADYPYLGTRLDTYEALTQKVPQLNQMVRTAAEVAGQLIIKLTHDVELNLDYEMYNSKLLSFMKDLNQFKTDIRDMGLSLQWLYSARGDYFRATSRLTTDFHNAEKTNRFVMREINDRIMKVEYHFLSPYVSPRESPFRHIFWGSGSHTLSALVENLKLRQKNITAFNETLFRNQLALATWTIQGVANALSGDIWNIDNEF

Question: Which results are given for “antiTfR-siHPRT complex: RI7 217 anti-TfR1 Fab (DTX-A-002) covalently linked via a non-cleavable GMBS linker to the HPRT siRNA (siHPRT)”?
Answer: HPRT expression in gastrocnemius of C57BL/6 mice, three days after a single i.v. dose (2 mg/kg of RNA): 31%; HPRT expression in heart of C57BL/6 mice, three days after a single i.v. dose (2 mg/kg of RNA): 30%; decrease in HPRT expression in Hepa 1-6 cells after 72 hour incubation with 100 nM complex: 50%
